From US20260158142A1 (published 2026)

Target: T1, human amyloid beta (Aβ42), T cell epitope peptide on H2-IAb (mouse)
T1 peptide: KLVFFAEDVGSNKGA
Test: multimer staining

B1: Aβ-Th1 TCR (TCR, V domains shown)
Valpha: QQQVRQSPQSLTVWEGETAILNCSYENSAFDYFPWYQQFPGEGPALLISILSVSNKKEDGRFTIFFNKREKKLSLHIADSQPGDSATYFCAGGDYANKMIFGLGTILRVRP
Vbeta: DPKIIQKPKYLVAVTGSEKILICEQYLGHNAMYWYRQSAKKPLEFMFSYSYQKLMDNQTASSRFQPQSSKKNHLDLQITALKPDDSATYFCASSQDRSYNSPLYFAAGTRLTVT
binding result: recognises
